From patent US20230372448A1, “THERAPEUTIC USE OF LONG-ACTING CONJUGATE OF TRIPLE AGONIST ACTING ON ALL OF GLUCAGON, GLP-1 AND GIP RECEPTORS AGAINST MULTIPLE SCLEROSIS” (HANMI PHARM. CO. ,LTD., priority 2020, published 2023) come the findings set out here.

Positions of bridges follow the written chain, without caps; N, C: chain ends. Non-standard residues stand in square brackets, D forms with d. No end group written: not given here. *: point of attachment. Acetyl(2-(4-imidazolyl)) = O=C(Cc1c[nH]cn1)*; Aib = CC(C)(N)C(=O)O A value given as a limit tells only on which side of the number the result lay.

Assay in all cases: cell-based or functional assay
In experiment [1] the target is human GLP-1 receptor (human, UniProt P43220 24-463).
Experiment [2] concerns the target human GCG receptor (human, UniProt P47871 26-477).
Experiment [3] concerns the target T1, human GIP receptor (human, UniProt P48546 22-466).
T1 sequence (looked up): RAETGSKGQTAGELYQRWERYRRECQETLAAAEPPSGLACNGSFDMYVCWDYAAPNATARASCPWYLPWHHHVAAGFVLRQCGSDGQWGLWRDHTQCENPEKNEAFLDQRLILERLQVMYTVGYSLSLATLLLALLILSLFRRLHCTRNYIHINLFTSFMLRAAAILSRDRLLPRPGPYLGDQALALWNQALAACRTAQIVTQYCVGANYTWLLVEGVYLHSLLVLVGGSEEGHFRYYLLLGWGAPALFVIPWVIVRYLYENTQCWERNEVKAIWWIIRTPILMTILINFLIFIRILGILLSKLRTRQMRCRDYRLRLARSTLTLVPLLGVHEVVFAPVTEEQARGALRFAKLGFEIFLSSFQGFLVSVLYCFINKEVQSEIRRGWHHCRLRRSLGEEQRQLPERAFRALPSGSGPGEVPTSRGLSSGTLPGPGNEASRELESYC

human GCG receptor, sequence (P47871 26-477): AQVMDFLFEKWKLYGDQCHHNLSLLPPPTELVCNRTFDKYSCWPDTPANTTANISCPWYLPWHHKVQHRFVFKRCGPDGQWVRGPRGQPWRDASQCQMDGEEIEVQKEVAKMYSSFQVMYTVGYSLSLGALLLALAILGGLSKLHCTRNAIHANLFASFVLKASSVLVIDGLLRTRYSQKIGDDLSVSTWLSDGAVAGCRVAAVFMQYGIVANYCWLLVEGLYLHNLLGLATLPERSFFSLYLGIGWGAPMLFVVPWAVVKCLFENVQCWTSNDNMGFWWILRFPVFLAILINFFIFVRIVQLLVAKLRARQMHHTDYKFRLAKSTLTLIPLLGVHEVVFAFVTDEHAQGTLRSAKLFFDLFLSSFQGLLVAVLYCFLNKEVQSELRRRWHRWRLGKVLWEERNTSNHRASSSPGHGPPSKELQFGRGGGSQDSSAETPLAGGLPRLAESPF

With H[Aib]QGTFTSDVSKYLDGQAAQEFVAWLLKGC (not fully specified) [triple agonist of SEQ ID NO: 8], the “In vitro activity (%) compared with native peptide: vs GLP-1” value (shortened to “In vitro activity (%) … vs GLP-1”) in experiment [1] is 14.2%. The “In vitro activity (%) compared with native peptide: vs Glucagon” value (from here on “In vitro activity (%) … vs Glucagon”) in experiment [2] stood at 0.1%. The “In vitro activity (%) compared with native peptide: vs GIP” value (“In vitro activity (%) … vs GIP” below) in experiment [3] is less than 0.1%.

With {Acetyl(2-(4-imidazolyl))}-[Aib]QGTFTSDYSKYLDEKRQKEFVQWLLNTC (bridge 15-19; not fully specified) [triple agonist of SEQ ID NO: 81], the “In vitro activity (%) … vs GLP-1” value in experiment [1] turned out to be 7.8%. The “In vitro activity (%) … vs Glucagon” value in experiment [2] was determined as 0.3%. For the same molecule, in experiment [3], the “In vitro activity (%) … vs GIP” value is less than 0.1%.

As to H[Aib]EGTFTSDYSIAMDEIHQKDFVDWLLAEKC (bridge 16-20; not fully specified) [triple agonist of SEQ ID NO: 80], in experiment [1], the “In vitro activity (%) … vs GLP-1” value turned out to be 8.1%. Also, the “In vitro activity (%) … vs Glucagon” value in experiment [2] amounted to 0%. Also, the “In vitro activity (%) … vs GIP” value in experiment [3] came to 0.1%.

With {Acetyl(2-(4-imidazolyl))}-[Aib]QGTFTSDYSIAMDEIHQKDFVNWLLAQKC (bridge 15-19; not fully specified) [triple agonist of SEQ ID NO: 92], in experiment [1], the “In vitro activity (%) … vs GLP-1” value came to 0.8%. In experiment [2], the “In vitro activity (%) … vs Glucagon” value is less than 0.1%. In addition, the “In vitro activity (%) … vs GIP” value in experiment [3] turned out to be 0.4%.

In the case of Y[Aib]QGTFTSDYSKYLDEKAAKEFVQWLLDHHPSSGQPPPSC (bridge 16-20; not fully specified) [triple agonist of SEQ ID NO: 75], the “In vitro activity (%) … vs GLP-1” value in experiment [1] is 35.1%. Besides, the “In vitro activity (%) … vs Glucagon” value in experiment [2] is 8.5%. Also, the “In vitro activity (%) … vs GIP” value in experiment [3] was found to be 18%.

Take {Acetyl(2-(4-imidazolyl))}-[Aib]QGTFTSDYSKYLDEKRQKEFVQWLLDTKC (bridge 15-19; not fully specified) [triple agonist of SEQ ID NO: 89]: the “In vitro activity (%) … vs GLP-1” value in experiment [1] was 7.1%. Moreover, the “In vitro activity (%) … vs Glucagon” value in experiment [2] stood at 0.7%. Further, the “In vitro activity (%) … vs GIP” value in experiment [3] is less than 0.1%.

For {Acetyl(2-(4-imidazolyl))}-[Aib]QGTFTSDYSKYLDECRAKEFVQWLLDHHPSSGQPPPS (bridge 15-19; not fully specified) [triple agonist of SEQ ID NO: 73], in experiment [1], the “In vitro activity (%) … vs GLP-1” value turned out to be 22.6%. The “In vitro activity (%) … vs Glucagon” value in experiment [2] was determined as 5.4%. Also, the “In vitro activity (%) … vs GIP” value in experiment [3] is 3%.

For the molecule Y[Aib]QGTFTSDYSKYLDEKAAKDFVQWLLDHHPSSGQPPPSC (bridge 16-20; not fully specified) [triple agonist of SEQ ID NO: 77], in experiment [1], the “In vitro activity (%) … vs GLP-1” value is 38.7%. Besides, the “In vitro activity (%) … vs Glucagon” value in experiment [2] was found to be 12.2%. For the same molecule, the “In vitro activity (%) … vs GIP” value in experiment [3] turned out to be 35.5%.

{Acetyl(2-(4-imidazolyl))}-[Aib]EGTFTSDYSIAMDEIHQKDFVDWLLAEC (bridge 15-19; not fully specified) [triple agonist of SEQ ID NO: 84]: the “In vitro activity (%) … vs GLP-1” value in experiment [1] came out at 4.2%. Also, the “In vitro activity (%) … vs Glucagon” value in experiment [2] is less than 0.1%. In addition, the “In vitro activity (%) … vs GIP” value in experiment [3] was less than 0.1%.

In the case of {Acetyl(2-(4-imidazolyl))}-[Aib]QGTFTSDYSKCLDEKRAKEFVQWLLDHHPSSGQPPPS (bridge 15-19; not fully specified) [triple agonist of SEQ ID NO: 74], in experiment [1], the “In vitro activity (%) … vs GLP-1” value amounted to 12.9%. Besides, the “In vitro activity (%) … vs Glucagon” value in experiment [2] was 0.9%. For the same molecule, the “In vitro activity (%) … vs GIP” value in experiment [3] amounted to 1%.

Turning to {Acetyl(2-(4-imidazolyl))}-[Aib]EGTFTSDYSIAMDEIHQKDFVNWLLAQKC (bridge 15-19; not fully specified) [triple agonist of SEQ ID NO: 90], in experiment [1], the “In vitro activity (%) … vs GLP-1” value turned out to be 7.4%. For the same molecule, the “In vitro activity (%) … vs Glucagon” value in experiment [2] was less than 0.1%. The “In vitro activity (%) … vs GIP” value in experiment [3] is less than 0.1%.

As for {Acetyl(2-(4-imidazolyl))}-[Aib]QGTFTSDYSKYLDEKRQKEFVQWLLDTC (bridge 15-19; not fully specified) [triple agonist of SEQ ID NO: 82], the “In vitro activity (%) … vs GLP-1” value in experiment [1] was determined as 9.5%. Further, the “In vitro activity (%) … vs Glucagon” value in experiment [2] was determined as 1.1%. For the same molecule, the “In vitro activity (%) … vs GIP” value in experiment [3] is less than 0.1%.

{Acetyl(2-(4-imidazolyl))}-[Aib]QGTFTSDYSIAMDEIHQKDFVNWLLNTC (bridge 15-19; not fully specified) [triple agonist of SEQ ID NO: 87]: in experiment [1], the “In vitro activity (%) … vs GLP-1” value was 0.9%. Further, in experiment [2], the “In vitro activity (%) … vs Glucagon” value was less than 0.1%. Besides, the “In vitro activity (%) … vs GIP” value in experiment [3] is less than 0.1%.

Take H[Aib]QGTFTSDVSKYLDGQAAQEFVAWLLAGC (not fully specified) [triple agonist of SEQ ID NO: 9]: in experiment [1], the “In vitro activity (%) … vs GLP-1” value came to 32.1%. Besides, in experiment [2], the “In vitro activity (%) … vs Glucagon” value came out at 0.13%. Further, the “In vitro activity (%) … vs GIP” value in experiment [3] was less than 0.1%.

In the case of {Acetyl(2-(4-imidazolyl))}-[Aib]QGTFTSDYSKYLDEKRQKEFVQWLLNTKC (bridge 15-19; not fully specified) [triple agonist of SEQ ID NO: 88], the “In vitro activity (%) … vs GLP-1” value in experiment [1] was found to be 9.6%. Moreover, in experiment [2], the “In vitro activity (%) … vs Glucagon” value turned out to be 0.3%. In experiment [3], the “In vitro activity (%) … vs GIP” value was less than 0.1%.

As to Y[Aib]QGTFTSDYSKYLDEKRAKDFVQWLLDHHPSSGQPPPSC (bridge 16-20; not fully specified) [triple agonist of SEQ ID NO: 76], the “In vitro activity (%) … vs GLP-1” value in experiment [1] is 10.3%. For the same molecule, the “In vitro activity (%) … vs Glucagon” value in experiment [2] was 47.6%. Also, in experiment [3], the “In vitro activity (%) … vs GIP” value amounted to 11.7%.

Consider {Acetyl(2-(4-imidazolyl))}-[Aib]QGTFTSDYSKYLDEKRQKEFVNWLLAQKC (bridge 15-19; not fully specified) [triple agonist of SEQ ID NO: 93], for which the “In vitro activity (%) … vs GLP-1” value in experiment [1] amounted to 5.7%. The “In vitro activity (%) … vs Glucagon” value in experiment [2] was found to be 0.3%. For the same molecule, the “In vitro activity (%) … vs GIP” value in experiment [3] is 0.7%.

As for H[Aib]QGTFTSDYSKYLDEKRQKEFVQWLLDTKC (bridge 16-20; not fully specified) [triple agonist of SEQ ID NO: 78], in experiment [1], the “In vitro activity (%) … vs GLP-1” value came out at 51%. In addition, in experiment [2], the “In vitro activity (%) … vs Glucagon” value came to 14%. Moreover, the “In vitro activity (%) … vs GIP” value in experiment [3] was 0.12%.

In the case of H[Aib]EGTFTSDYSIAMDEIHQKDFVNWLLAQKC (bridge 16-20; not fully specified) [triple agonist of SEQ ID NO: 79], the “In vitro activity (%) … vs GLP-1” value in experiment [1] turned out to be 41.5%. In addition, the “In vitro activity (%) … vs Glucagon” value in experiment [2] came to 4.9%. In addition, the “In vitro activity (%) … vs GIP” value in experiment [3] turned out to be 1.4%.

On to {Acetyl(2-(4-imidazolyl))}-[Aib]QGTFTSDYSKYLDEKRQKEFVNWLLAQC (bridge 15-19; not fully specified) [triple agonist of SEQ ID NO: 86], for which the “In vitro activity (%) … vs GLP-1” value in experiment [1] was found to be 28.4%. Besides, in experiment [2], the “In vitro activity (%) … vs Glucagon” value is 0.4%. Besides, the “In vitro activity (%) … vs GIP” value in experiment [3] turned out to be 0.2%.

Take {Acetyl(2-(4-imidazolyl))}-[Aib]EGTFTSDYSIAMDEIHQKDFVDWLLAEKC (bridge 15-19; not fully specified) [triple agonist of SEQ ID NO: 91]: the “In vitro activity (%) … vs GLP-1” value in experiment [1] came out at 31.9%. Further, the “In vitro activity (%) … vs Glucagon” value in experiment [2] was 16.8%. In addition, the “In vitro activity (%) … vs GIP” value in experiment [3] stood at 0.3%.

In the case of Y[Aib]QGTFTSDCSKYLDERAAKDFVQWLLDHHPSSGQPPPS (bridge 16-20; not fully specified) [triple agonist of SEQ ID NO: 72], the “In vitro activity (%) … vs GLP-1” value in experiment [1] came to 11.5%. The “In vitro activity (%) … vs Glucagon” value in experiment [2] amounted to 1%. In experiment [3], the “In vitro activity (%) … vs GIP” value turned out to be 1.6%.

With {Acetyl(2-(4-imidazolyl))}-[Aib]QGTFTSDYSIAMDEIHQKDFVNWLLAQC (bridge 15-19; not fully specified) [triple agonist of SEQ ID NO: 85], the “In vitro activity (%) … vs GLP-1” value in experiment [1] is 4.3%. Besides, the “In vitro activity (%) … vs Glucagon” value in experiment [2] is less than 0.1%. Also, in experiment [3], the “In vitro activity (%) … vs GIP” value worked out at 0.3%.
